Laboratory results published in US20260201008A1, “SECRETIN-DERIVED GLP1R SELECTIVE AGONISTS” (GUBRA A/S, priority 2023, published 2026).
Numbered stars: 1 amine (or outer) side, 2 acyl side, 3 side chain; on linkers, the order of the positions; unused ones are H or OH. Square brackets hold non-standard residues; d marks the D form. Side chains are listed from the residue outwards. Ends that are not written are not given here. * marks the point of attachment. C20 diacid = O=C(O)CCCCCCCCCCCCCCCCCCC(=O)*; C18 diacid = O=C(O)CCCCCCCCCCCCCCCCC(=O)*; γGlu = O=C(O)[C@H](CCC(=O)[*:2])N[*:1]; AEEA = NCCOCCOCC(=O)O; Aib = CC(C)(N)C(=O)O

B1: SEQ ID NO: 168 (peptide)
peptide: H[Aib]EGTFTSDVSELK([AEEA-AEEA-γGlu-C20 diacid])EEA[Aib]LQRFLEHLV-NH2
B2: SEQ ID NO: 203 (peptide)
peptide: H[Aib]EGTFTSDVSYLK([AEEA-AEEA-γGlu-C20 diacid])EEA[Aib]LQRFLEHLV-NH2
modifications: also: table footnote: C20DA or C18DA
B3: SEQ ID NO: 48 (peptide)
peptide: H[Aib]EGTFTSDVSYLK([AEEA-AEEA-γGlu-C20 diacid])E[Aib]AATQRFLEHLV-NH2
B4: SEQ ID NO: 49 (peptide)
peptide: H[Aib]EGTFTSDVSVLK([AEEA-AEEA-γGlu-C20 diacid])E[Aib]AATQRFLEHLV-NH2
B5: SEQ ID NO: 223 (peptide)
peptide: H[Aib]EGTFTSDLS[Aib]LLEGAALQRFIQWLV-NH2
modifications: N-terminus assumed
SMILES: CC[C@H](C)[C@H](NC(=O)[C@H](Cc1ccccc1)NC(=O)[C@H](CCCNC(=N)N)NC(=O)[C@H](CCC(N)=O)NC(=O)[C@H](CC(C)C)NC(=O)[C@H](C)NC(=O)[C@H](C)NC(=O)CNC(=O)[C@H](CCC(=O)O)NC(=O)[C@H](CC(C)C)NC(=O)[C@H](CC(C)C)NC(=O)C(C)(C)NC(=O)[C@H](CO)NC(=O)[C@H](CC(C)C)NC(=O)[C@H](CC(=O)O)NC(=O)[C@H](CO)NC(=O)[C@@H](NC(=O)[C@H](Cc1ccccc1)NC(=O)[C@@H](NC(=O)CNC(=O)[C@H](CCC(=O)O)NC(=O)C(C)(C)NC(=O)[C@@H](N)Cc1c[nH]cn1)[C@@H](C)O)[C@@H](C)O)C(=O)N[C@@H](CCC(N)=O)C(=O)N[C@@H](Cc1c[nH]c2ccccc12)C(=O)N[C@@H](CC(C)C)C(=O)N[C@H](C(N)=O)C(C)C
B6: SEQ ID NO: 224 (peptide)
peptide: H[Aib]EGTFTSDLSELLEGAALQRFIQWLV-NH2
modifications: N-terminus assumed
SMILES: CC[C@H](C)[C@H](NC(=O)[C@H](Cc1ccccc1)NC(=O)[C@H](CCCNC(=N)N)NC(=O)[C@H](CCC(N)=O)NC(=O)[C@H](CC(C)C)NC(=O)[C@H](C)NC(=O)[C@H](C)NC(=O)CNC(=O)[C@H](CCC(=O)O)NC(=O)[C@H](CC(C)C)NC(=O)[C@H](CC(C)C)NC(=O)[C@H](CCC(=O)O)NC(=O)[C@H](CO)NC(=O)[C@H](CC(C)C)NC(=O)[C@H](CC(=O)O)NC(=O)[C@H](CO)NC(=O)[C@@H](NC(=O)[C@H](Cc1ccccc1)NC(=O)[C@@H](NC(=O)CNC(=O)[C@H](CCC(=O)O)NC(=O)C(C)(C)NC(=O)[C@@H](N)Cc1c[nH]cn1)[C@@H](C)O)[C@@H](C)O)C(=O)N[C@@H](CCC(N)=O)C(=O)N[C@@H](Cc1c[nH]c2ccccc12)C(=O)N[C@@H](CC(C)C)C(=O)N[C@H](C(N)=O)C(C)C
B7: SEQ ID NO: 213 (peptide)
peptide: H[Aib]EGTFTSDVSYLLEEA[Aib]LQRFLEK([AEEA-AEEA-γGlu-C20 diacid])LVEAA-NH2
modifications: N-terminus assumed
SMILES: CC(C)C[C@H](NC(=O)[C@H](CC(C)C)NC(=O)[C@H](Cc1ccc(O)cc1)NC(=O)[C@H](CO)NC(=O)[C@@H](NC(=O)[C@H](CC(=O)O)NC(=O)[C@H](CO)NC(=O)[C@@H](NC(=O)[C@H](Cc1ccccc1)NC(=O)[C@@H](NC(=O)CNC(=O)[C@H](CCC(=O)O)NC(=O)C(C)(C)NC(=O)[C@@H](N)Cc1c[nH]cn1)[C@@H](C)O)[C@@H](C)O)C(C)C)C(=O)N[C@@H](CCC(=O)O)C(=O)N[C@@H](CCC(=O)O)C(=O)N[C@@H](C)C(=O)NC(C)(C)C(=O)N[C@@H](CC(C)C)C(=O)N[C@@H](CCC(N)=O)C(=O)N[C@@H](CCCNC(=N)N)C(=O)N[C@@H](Cc1ccccc1)C(=O)N[C@@H](CC(C)C)C(=O)N[C@@H](CCC(=O)O)C(=O)N[C@@H](CCCCNC(=O)COCCOCCNC(=O)COCCOCCNC(=O)CC[C@H](NC(=O)CCCCCCCCCCCCCCCCCCC(=O)O)C(=O)O)C(=O)N[C@@H](CC(C)C)C(=O)N[C@H](C(=O)N[C@@H](CCC(=O)O)C(=O)N[C@@H](C)C(=O)N[C@@H](C)C(N)=O)C(C)C
B8: SEQ ID NO: 209 (peptide)
peptide: H[Aib]EGTFTSDVSYLK([AEEA-AEEA-γGlu-C20 diacid])EEA[Aib]LQRFLEHLVEAA-NH2
modifications: N-terminus assumed
SMILES: CC(C)C[C@H](NC(=O)[C@H](Cc1ccccc1)NC(=O)[C@H](CCCNC(=N)N)NC(=O)[C@H](CCC(N)=O)NC(=O)[C@H](CC(C)C)NC(=O)C(C)(C)NC(=O)[C@H](C)NC(=O)[C@H](CCC(=O)O)NC(=O)[C@H](CCC(=O)O)NC(=O)[C@H](CCCCNC(=O)COCCOCCNC(=O)COCCOCCNC(=O)CC[C@H](NC(=O)CCCCCCCCCCCCCCCCCCC(=O)O)C(=O)O)NC(=O)[C@H](CC(C)C)NC(=O)[C@H](Cc1ccc(O)cc1)NC(=O)[C@H](CO)NC(=O)[C@@H](NC(=O)[C@H](CC(=O)O)NC(=O)[C@H](CO)NC(=O)[C@@H](NC(=O)[C@H](Cc1ccccc1)NC(=O)[C@@H](NC(=O)CNC(=O)[C@H](CCC(=O)O)NC(=O)C(C)(C)NC(=O)[C@@H](N)Cc1c[nH]cn1)[C@@H](C)O)[C@@H](C)O)C(C)C)C(=O)N[C@@H](CCC(=O)O)C(=O)N[C@@H](Cc1c[nH]cn1)C(=O)N[C@@H](CC(C)C)C(=O)N[C@H](C(=O)N[C@@H](CCC(=O)O)C(=O)N[C@@H](C)C(=O)N[C@@H](C)C(N)=O)C(C)C
B9: SEQ ID NO: 208 (peptide)
peptide: H[Aib]EGTFTSDVSRLK([AEEA-AEEA-γGlu-C20 diacid])EEA[Aib]LQRFLEHLVEAA-NH2
B10: SEQ ID NO: 210 (peptide)
peptide: H[Aib]EGTFTSDVSELK([AEEA-AEEA-γGlu-C20 diacid])EEA[Aib]LQRFLEHLVEAA-NH2
B11: SEQ ID NO: 212 (peptide)
peptide: H[Aib]EGTFTSDVSRLLEEA[Aib]LQRFLEK([AEEA-AEEA-γGlu-C20 diacid])LVEAA-NH2
B12: SEQ ID NO: 207 (peptide)
peptide: H[Aib]EGTFTSDVSRLK([AEEA-AEEA-γGlu-C20 diacid])EEAALQRFLEHLVEAA-NH2
B13: SEQ ID NO: 205 (peptide)
peptide: H[Aib]EGTFTSDVSRLK([AEEA-AEEA-γGlu-C18 diacid])EGAAEQRFLQHLVEAA-NH2
B14: SEQ ID NO: 206 (peptide)
peptide: H[Aib]EGTFTSDVSRLK([AEEA-AEEA-γGlu-C18 diacid])EGAAEQRFLQHLVAAE-NH2
B15: SEQ ID NO: 211 (peptide)
peptide: H[Aib]EGTFTSDVSTLK([AEEA-AEEA-γGlu-C20 diacid])EEA[Aib]LQRFLEHLVEAA-NH2
B16: SEQ ID NO: 204 (peptide)
peptide: H[Aib]EGTFTSDVSRLK([AEEA-AEEA-γGlu-C18 diacid])EGAAEQRFLQHLVEAE-NH2
B17: SEQ ID NO: 215 (peptide)
peptide: H[Aib]EGTFTSDVSRLK([AEEA-AEEA-γGlu-C20 diacid])EEA[Aib]AQRFLEHLVEAA-NH2
B18: SEQ ID NO: 214 (peptide)
peptide: H[Aib]EGTFTSDVSELLEEA[Aib]LQRFLEK([AEEA-AEEA-γGlu-C20 diacid])LVEAA-NH2

These binders were tested against T1, human secretin receptor (hSCTR) (human, UniProt P47872 23-440) (assay: cell-based or functional assay).
T1 sequence (P47872 23-440): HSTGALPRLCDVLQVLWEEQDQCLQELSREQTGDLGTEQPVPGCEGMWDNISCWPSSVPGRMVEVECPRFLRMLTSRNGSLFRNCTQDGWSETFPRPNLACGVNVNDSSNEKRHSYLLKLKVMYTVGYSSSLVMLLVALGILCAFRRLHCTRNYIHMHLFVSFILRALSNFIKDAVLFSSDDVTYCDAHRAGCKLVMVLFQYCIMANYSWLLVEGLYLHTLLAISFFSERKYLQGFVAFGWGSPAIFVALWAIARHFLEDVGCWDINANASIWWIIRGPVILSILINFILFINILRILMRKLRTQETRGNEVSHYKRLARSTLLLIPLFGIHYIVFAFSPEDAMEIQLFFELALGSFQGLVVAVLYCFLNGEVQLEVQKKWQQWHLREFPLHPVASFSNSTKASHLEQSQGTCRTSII

| Binder | pEC50 hSCTR |
| --- | --- |
| B1 | 7.3 -log M |
| B2 | 6.7 -log M |
| B3 | 6.9 -log M |
| B4 | 6.9 -log M |

What follows are binders tested against T2, human GLP-1 receptor (hGLP1R) (human, UniProt P43220 24-463) (assay: cell-based or functional assay).

| Binder | pEC50 hGLPR1 |
| --- | --- |
| B1 | 11.2 -log M |
| B2 | 10.7 -log M |
| B3 | 10.6 -log M |
| B4 | 10.7 -log M |

Target: T1, human secretin receptor (hSCTR)
Assay: cell-based or functional assay
Remark: another data set of the same source

| Binder | pEC50 hSCTR |
| --- | --- |
| B5 | 8.3 -log M |
| B6 | 8.8 -log M |

Target: T2, human GLP-1 receptor (hGLP1R)
Assay: cell-based or functional assay
Remark: another data set of the same source

| Binder | pEC50 hGLPR1 |
| --- | --- |
| B5 | 10.2 -log M |
| B6 | 10.9 -log M |

Target: T1, human secretin receptor (hSCTR)
Assay: cell-based or functional assay
Remark: another data set of the same source

| Binder | hSCTR EC50 nM (purified peptide) [nM] | hSCTR pEC50 (purified peptide) |
| --- | --- | --- |
| B1 | 100 | 7 -log M |
| B7 | 890 | 6.1 -log M |
| B2 | 190 | 6.7 -log M |
| B8 | 330 | 6.5 -log M |
| B9 | 24 | 7.6 -log M |
| B10 | 190 | 6.7 -log M |
| B11 | 60 | 7.2 -log M |

Target: T2, human GLP-1 receptor (hGLP1R)
Assay: cell-based or functional assay
Remark: another data set of the same source

| Binder | hGLPR1 EC50 nM (purified peptide) [nM] | hGLPR1 PEC50 (purified peptide) |
| --- | --- | --- |
| B1 | 0.012 | 10.9 -log M |
| B7 | 0.014 | 10.9 -log M |
| B2 | 0.017 | 10.8 -log M |
| B8 | 0.0098 | 11 -log M |
| B9 | 0.022 | 10.6 -log M |
| B10 | 0.0095 | 11 -log M |
| B11 | 0.021 | 10.7 -log M |

Target: T1, human secretin receptor (hSCTR)
Assay: cell-based or functional assay
Remark: another data set of the same source

| Binder | pEC50 hSCTR |
| --- | --- |
| B7 | 6 -log M |
| B12 | 8.2 -log M |
| B13 | 5.3 -log M |
| B14 | 5.3 -log M |
| B15 | 7.1 -log M |
| B8 | 6.4 -log M |
| B16 | 5.6 -log M |
| B17 | 6.3 -log M |
| B9 | 7.6 -log M |
| B18 | 6.1 -log M |
| B10 | 6.8 -log M |
| B11 | 7.2 -log M |

Target: T2, human GLP-1 receptor (hGLP1R)
Assay: cell-based or functional assay
Remark: another data set of the same source

| Binder | PEC50 hGLPR1 |
| --- | --- |
| B7 | 10.8 -log M |
| B12 | 11 -log M |
| B13 | 11.1 -log M |
| B14 | 10.8 -log M |
| B15 | 11.2 -log M |
| B8 | 10.9 -log M |
| B16 | 11 -log M |
| B17 | 11 -log M |
| B9 | 10.6 -log M |
| B18 | 10.9 -log M |
| B10 | 11 -log M |
| B11 | 10.7 -log M |
